Measurements: article PMC2865522, “Crystal Structure of HIV-1 gp41 Including Both Fusion Peptide and Membrane Proximal External Regions” (PLoS Pathogens, 2010)

Target: T1, gp41 HR1 fragment, Ala541 to Leu581 (chain of gp41_(541–665)) (HIV-1 HXB2 group M subtype B, UniProt P04578 541-581)
T1 construct: HIV-1 HXB2 (group M subtype B) envelope glycoprotein, gp41 subunit, residues Ala541 to Leu581 (heptad repeat 1); also called core fragment HR1; source: E. coli Rosetta (DE3), fusion protein; pellets of HR1 and HR2 expressing bacteria mixed before lysis; complex purified (amylose, TEV digestion, Ni2+, anion exchange, SEC); not shown: Flag-tag (DDDDK), N-terminal, kept
T1 sequence (P04578 541-581): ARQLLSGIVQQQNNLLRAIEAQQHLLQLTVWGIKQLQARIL
Assay: SEC; purified complexes on a Superdex 200 (S200) column in buffer A (0.02 M Tris pH 8.0, 0.1 M NaCl); SDS-PAGE of the peak; the complexes were assembled by mixing bacteria before lysis and co-purified
Details: both partners purified

B1: gp41 HR2 fragment, Met628 to Lys665 as printed (chain of gp41_(541–665)) (domain or fragment)
chain: MEWDREINNYTSLIHSLIEESQNQQEKNEQELLELDK
notes: HIV-1 HXB2 (group M subtype B) envelope glycoprotein, gp41 subunit, heptad repeat 2; also called core fragment HR2; source: E. coli Rosetta (DE3), fusion protein; pellets of HR1 and HR2 expressing bacteria mixed before lysis (HR2 in excess); complex purified (amylose, TEV digestion, Ni2+, anion exchange, SEC); not shown: Flag-tag (DDDDK), N-terminal, kept
B1: binds.
